Target: HIV-1 Gag polyprotein (p6 region) (HIV-1 (NL4-3))

Substance: HIV-1 Vpr L22E (from UniProt P12520 1-96) (natural protein)
- % Vpr incorporation into virions relative to WT Vpr (western blot densitometry, Vpr band normalised to p24 CA): 20 % of WT
